Test [1] has as its target Fusion of LpRseP (1–171, 326–425) and EfmRseP (172–325) (Lactiplantibacillus plantarum WCFS1 | Enterococcus faecium P21) (UniProt I3U2R6). Put plainly: flow cytometry on cells; noninduced L. plantarum cells expressing the RseP variant, 1 μM FITC-labeled EntK1 in 100 μM triammonium citrate pH 6.5, 20 min, room temperature; median fluorescence intensity relative to cells expressing EfmRseP (rMFI), triplicate. A general note: In flow cytometry, cells or beads pass a laser one at a time.

In test [2] the target is Fusion of EfmRseP (1–221) and LpRseP (222–425) (Enterococcus faecium P21 | Lactiplantibacillus plantarum WCFS1) (UniProt I3U2R6). The description is as above.
The target of test [3] is EfmRseP with substitution P367A (Enterococcus faecium P21) (UniProt I3U2R6). The test is described as above.
Test [4] deals with EfmRseP with substitution N364A (Enterococcus faecium P21) (UniProt I3U2R6). The test is described as above.
Test [5] deals with EfmRseP with substitution E19A (Enterococcus faecium P21) (UniProt I3U2R6). The test is described as above.
Test [6] deals with EfmRseP with substitution H22A (Enterococcus faecium P21) (UniProt I3U2R6). Described as above.
Test [7] addresses Fusion of LpRseP (1–201, 328–425) and EfmRseP (202–327) (Lactiplantibacillus plantarum WCFS1 | Enterococcus faecium P21) (UniProt I3U2R6). Described as above.
The target of test [8] is RseP from Lactiplantibacillus plantarum WCFS1, C-terminal 6× His-tag (Lactiplantibacillus plantarum WCFS1). The test is described as above.
The target of test [9] is EfmRseP with substitution H18A (Enterococcus faecium P21) (UniProt I3U2R6). Described as above.
The target of test [10] is Truncation of EfmRseP (1–39, 139–422) Δ40–138 (Enterococcus faecium P21) (UniProt I3U2R6). The description is as above.
Test [11] addresses EfmRseP with substitution P369A (Enterococcus faecium P21) (UniProt I3U2R6). The description is as above.
In test [12] the target is EfmRseP with substitution D372A (Enterococcus faecium P21) (UniProt I3U2R6). Described as above.
The target in test [13] is EfmRseP with the triple alanine substitution of the HExxH motif (Enterococcus faecium P21) (UniProt I3U2R6). Described as above.
The target in test [14] is RseP from Enterococcus faecium P21, C-terminal 6× His-tag (Enterococcus faecium P21) (UniProt I3U2R6). Described as above.
For test [15], the target named is Fusion of EfmRseP (1–325) and LpRseP (326–425) (Enterococcus faecium P21 | Lactiplantibacillus plantarum WCFS1) (UniProt I3U2R6). The description is as above.
For test [16], the target named is RseP from Enterococcus faecalis V583, without His-tag (Enterococcus faecalis V583) (UniProt Q9RPP2).
For test [17], the target named is RseP from Lactococcus lactis IL1403, without His-tag (Lactococcus lactis IL1403).
Test [18] addresses RseP from Staphylococcus aureus ATCC 14458, without His-tag (Staphylococcus aureus ATCC 14458).
In test [19] the target is RseP from Staphylococcus haemolyticus, without His-tag (Staphylococcus haemolyticus).
In test [20] the target is RseP from Staphylococcus arlettae LMGT 4134, without His-tag (Staphylococcus arlettae LMGT 4134).
In test [21] the target is RseP from Lactiplantibacillus plantarum WCFS1, without His-tag (Lactiplantibacillus plantarum WCFS1).
The target in test [22] is RseP from Enterococcus faecium P21, without His-tag (Enterococcus faecium P21) (UniProt I3U2R6).

With FITC-labeled Enterocin K1 (peptide), the rMFI % (relative median fluorescence intensity) in [1] amounted to 78%; in test [2], 37.6%; in [3], 89.1%; in test [4], 83.4%; in test [5], 65.4%; in [6], 59%. Moreover, the rMFI % (relative median fluorescence intensity) stood at 54.8% in test [7]; 0.41% in test [8]; 61.6% in test [9]; 7.4% in test [10]; 84.4% in test [11]; 80.6% in [12]. For the same substance, the rMFI % (relative median fluorescence intensity) turned out to be 0.5% in test [13], 100% in test [14] and 97.6% in test [15]. Besides, the MIC50 of FITC-EntK1 (growth inhibition, microtiter plate) towards L. plantarum expressing this RseP is 0.6 µM in test [16]; > 20 µM in test [17]; > 20 µM in test [19]; > 20 µM in test [21]; 0.15 µM in test [22]. Also, the MIC50 of FITC-EntK1 (growth inhibition, microtiter plate) towards L. plantarum expressing this RseP; footnote: low expression may contribute in test [18] and in test [20] was > 20 µM each time.

(Values after paper PMC9672952.)
